Data reported in article doi:10.1101/2020.05.13.094045.

B1: AtTCP13-RFP (natural protein)
chain: MNIVSWKDANDEVAGGATTRREREVKEDQEETEVRATSGKTVIKKQPTSISSSSSSWMKSKDPRIVRVSRAFGGKDRHSKVCTLRGLRDRRVRLSVPTAIQLYDLQERLGVDQPSKAVDWLLDAAKEEIDELPPLPISPENFSIFNHHQSFLNLGQRPGQDPTQLGFKINGCVQKSTTTSREENDREKGENDVVYTNNHHVGSYGTYHNLEHHHHHHQHLSLQADYHSHQLHSLVPFPSQILVCPMTTSPTTTTIQSLFPSSSSAGSGTMETLDPRQMVSHFQMPLMGNSSSSSSQNISTLYSLLHGSSSNNGGRDIDNRMSSVQFNRTNSTTTANMSRHLGSERCTSRGSDHHM
B2: AtTCP4-RFP (natural protein)
chain: MSDDQFHHPPPPSSMRHRSTSDAADGGCGEIVEVQGGHIVRSTGRKDRHSKVCTAKGPRDRRVRLSAHTAIQFYDVQDRLGFDRPSKAVDWLIKKAKTSIDELAELPPWNPADAIRLAAANAKPRRTTAKTQISPSPPPPQQQQQQQQLQFGVGFNGGGAEHPSNNESSFLPPSMDSDSIADTIKSFFPVIGSSTEAPSNHNLMHNYHHQHPPDLLSRTNSQNQDLRLSLQSFPDGPPSLLHHQHHHHTSASASEPTLFYGQSNPLGFDTSSWEQQSSEFGRIQRLVAWNSGGGGGATDTGNGGGFLFAPPTPSTTSFQPVLGQSQQLYSQRGPLQSSYSPMIRAWFDPHHHHQSISTDDLNHHHHLPPPVHQSAIPGIGFASGEFSSGFRIPARFQGQEEEQHDGLTHKPSSASSISRH

What was measured:
[1] = target: AP_SAP11-like_PM19-GFP ('Candidatus Phytoplasma mali' strain PM19); experiment: FRET or BRET
[2] = target: AP_SAP11-like_PM19^Δ40-56-GFP ('Candidatus Phytoplasma mali' strain PM19); experiment: FRET or BRET

Binder | FRET efficiency [1] | FRET efficiency [2]
B1 | 9% | 8%
B2 | 11% | 
